# Several values for one entry are separate records, joined by “and”; a condition that tells them apart may be missing. Equal entries are not always repeated.
# Target: mucin (purified mucins)
# Assay: AFM force spectroscopy
substance,measurement,value
"SRRP_(53608)-BR, binding region of the serine-rich repeat protein from Lactobacillus reuteri ATCC 53608 (domain or fragment)",modal adhesion force,105 pN
same,modal adhesion force (bimodal),72 pN and 120 pN

# — PMC5866549
